Reference: the RNAGym collection of RNA variant scans (doi:10.1093/molbev/msab373)

B1: Azoarcus group I ribozyme (parent)
chain: GUGCCUUGCGCCGGGAAACCACGCAAGGGAUGGUGUCAAAUUCGGCGAAACCUAAGCGCCCGCCCGGGCGUAUGGCAACGCCGAGCCAAGCUUCGGCGCCUGCGCCGAUGAAGGUGUAGAGACUAGACGGCACCCACCUAAGGCAAACGCUAUGGUGAAGGCAUAGUCCAGGGAGUGGCGAAAGUCACACAAACCGG

Variants of: B1
Assay: reverse-splicing fitness (ratio to wild type); higher = more active; in vitro selection; Mg2+ level not given
Method in brief: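 An in vitro group I ribozyme library with randomized positions was T7-transcribed and gel-purified. In triplicate, 10 pmol RNA in EPPS pH 7.5 was reacted with 50 pmoles of a 30-nt RNA substrate for 1 h at 37 °C across several added MgCl2 levels (1–48 mM), then stopped with EDTA. Products were reverse transcribed from a substrate-complementary primer, PCR-amplified and sequenced (HiSeq 4000). Fitness is a variant's read proportion after selection over that before, normalised to wild type.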

| Variant | reverse-splicing fitness |
| --- | --- |
| GUGCCUUGCGCCGGGAAACCACGCAAGGGAUGGUGUCAAAUUCGGCGAAACCUAAGCGCCCGCCCGGGCGUAUGGCAACGCUGAGCCAAGCUUCGGCGCCUGCGCCGAUGUAGGUGUAGAGACUAGACGGCACCCACCUAAGGCGAACGCUAUGGUGAAGGCAUAGUCUAGGGAGCGGCGAAAGUCACACAAACCGG | 0.0145 |
| GUGCCUUGCGCCGGGAAACCACGCAAGGGAUGGUGUCAAAUUCGGCGAAACCUAAGCGCCCGCCCGGGCGUAUGGCAACGCUGAGCCAAGCUUCGGCGCCUGCGCCGAUGUAGGUGUAGAGACUAGACGGCACCCACCUAAGGCUAACGAUAUGGUGAAGGCAUAGUCAAGGGAGCGGCGAAAGUCACACAAACCGG | 0.00929 |
| GUGCCUUGCGCCGGGAAACCACGCAAGGGAUGGUGUCAAAUUCGGCGAAACCUAAGCGCCCGCCCGGGCGUAUGGCAACGCUGAGCCAAGCUUCGGCGCCUGCGCCGAUGUAGGUGUAGAGACUAGACGGCACCCACCUAAGGCUAACGAUAUGGUGAAGGCAUAGUCAAGGGAGAGGCGAAAGUCACACAAACCGG | 0.0123 |
| GUGCCUUGCGCCGGGAAACCACGCAAGGGAUGGUGUCAAAUUCGGCGAAACCUAAGCGCCCGCCCGGGCGUAUGGCAACGCUGAGCCAAGCUUCGGCGCCUGCGCCGAUGUAGGUGUAGAGACUAGACGGCACCCACCUAAGGCUAACGAUAUGGUGAAGGCAUAGUCAAGGGAGGGGCGAAAGUCACACAAACCGG | 0.00735 |
| GUGCCUUGCGCCGGGAAACCACGCAAGGGAUGGUGUCAAAUUCGGCGAAACCUAAGCGCCCGCCCGGGCGUAUGGCAACGCUGAGCCAAGCUUCGGCGCCUGCGCCGAUGUAGGUGUAGAGACUAGACGGCACCCACCUAAGGCGAACGCUAUGGUGAAGGCAUAGUCUAGGGAGUGGCGAAAGUCACACAAACCGG | 0.0114 |
| GUGCCUUGCGCCGGGAAACCACGCAAGGGAUGGUGUCAAAUUCGGCGAAACCUAAGCGCCCGCCCGGGCGUAUGGCAACGCUGAGCCAAGCUUCGGCGCCUGCGCCGAUGUAGGUGUAGAGACUAGACGGCACCCACCUAAGGCGAACGCUAUGGUGAAGGCAUAGUCAAGGGAGUGGCGAAAGUCACACAAACCGG | 0.00999 |
| GUGCCUUGCGCCGGGAAACCACGCAAGGGAUGGUGUCAAAUUCGGCGAAACCUAAGCGCCCGCCCGGGCGUAUGGCAACGCUGAGCCAAGCUUCGGCGCCUGCGCCGAUGUAGGUGUAGAGACUAGACGGCACCCACCUAAGGCGAACGCUAUGGUGAAGGCAUAGUCGAGGGAGUGGCGAAAGUCACACAAACCGG | 0.00856 |
| GUGCCUUGCGCCGGGAAACCACGCAAGGGAUGGUGUCAAAUUCGGCGAAACCUAAGCGCCCGCCCGGGCGUAUGGCAACGCUGAGCCAAGCUUCGGCGCCUGCGCCGAUGUAGGUGUAGAGACUAGACGGCACCCACCUAAGGCUAACGAUAUGGUGAAGGCAUAGUCCAGGGAGUGGCGAAAGUCACACAAACCGG | 0.0273 |
| GUGCCUUGCGCCGGGAAACCACGCAAGGGAUGGUGUCAAAUUCGGCGAAACCUAAGCGCCCGCCCGGGCGUAUGGCAACGCUGAGCCAAGCUUCGGCGCCUGCGCCGAUGUAGGUGUAGAGACUAGACGGCACCCACCUAAGGCGAACGCUAUGGUGAAGGCAUAGUCAAGGGAGAGGCGAAAGUCACACAAACCGG | 0.0191 |
| GUGCCUUGCGCCGGGAAACCACGCAAGGGAUGGUGUCAAAUUCGGCGAAACCUAAGCGCCCGCCCGGGCGUAUGGCAACGCUGAGCCAAGCUUCGGCGCCUGCGCCGAUGUAGGUGUAGAGACUAGACGGCACCCACCUAAGGCGAACGCUAUGGUGAAGGCAUAGUCAAGGGAGGGGCGAAAGUCACACAAACCGG | 0.00582 |
| GUGCCUUGCGCCGGGAAACCACGCAAGGGAUGGUGUCAAAUUCGGCGAAACCUAAGCGCCCGCCCGGGCGUAUGGCAACGCUGAGCCAAGCUUCGGCGCCUGCGCCGAUGUAGGUGUAGAGACUAGACGGCACCCACCUAAGGCGAACGCUAUGGUGAAGGCAUAGUCAAGGGAGCGGCGAAAGUCACACAAACCGG | 0.0257 |
| GUGCCUUGCGCCGGGAAACCACGCAAGGGAUGGUGUCAAAUUCGGCGAAACCUAAGCGCCCGCCCGGGCGUAUGGCAACGCUGAGCCAAGCUUCGGCGCCUGCGCCGAUGUAGGUGUAGAGACUAGACGGCACCCACCUAAGGCUAACGAUAUGGUGAAGGCAUAGUCGAGGGAGAGGCGAAAGUCACACAAACCGG | 0.011 |
| GUGCCUUGCGCCGGGAAACCACGCAAGGGAUGGUGUCAAAUUCGGCGAAACCUAAGCGCCCGCCCGGGCGUAUGGCAACGCUGAGCCAAGCUUCGGCGCCUGCGCCGAUGUAGGUGUAGAGACUAGACGGCACCCACCUAAGGCUAACGAUAUGGUGAAGGCAUAGUCGAGGGAGGGGCGAAAGUCACACAAACCGG | 0.00594 |
| GUGCCUUGCGCCGGGAAACCACGCAAGGGAUGGUGUCAAAUUCGGCGAAACCUAAGCGCCCGCCCGGGCGUAUGGCAACGCUGAGCCAAGCUUCGGCGCCUGCGCCGAUGUAGGUGUAGAGACUAGACGGCACCCACCUAAGGCUAACGAUAUGGUGAAGGCAUAGUCGAGGGAGCGGCGAAAGUCACACAAACCGG | 0.0121 |
| GUGCCUUGCGCCGGGAAACCACGCAAGGGAUGGUGUCAAAUUCGGCGAAACCUAAGCGCCCGCCCGGGCGUAUGGCAACGCUGAGCCAAGCUUCGGCGCCUGCGCCGAUGUAGGUGUAGAGACUAGACGGCACCCACCUAAGGCGAACGUUAUGGUGAAGGCAUAGUCUAGGGAGGGGCGAAAGUCACACAAACCGG | 0.00571 |
